# B1: H4H6243P (antibody, human IgG4, V domains shown)
# VH: QVQLVQSGAEVKKPGASVKVSCKVSGYTLTELSMHWVRQAPGKGLEWMGGFDPEDGETIYAQKFQDRVTMTEDTSTDTAYMELSSLRSEDTAVYYCVTDDYEILPEYPYNMDVWGQGTTVTVSS
# VL: DIQMTQSPSSLSASVGDRVTITCRASQSISTYLNWYQQKPGKAPKLLIYAASSLQSGVPSRFSGSGSGTDFTLTIRSLQPEDFATYYCQQSHITPFTFGPGTKVDIK
# notes: H4H = human IgG4 Fc
# Biological target: T1, human GREM1 (hGREM1-His; SEQ ID NO: 595) (human, UniProt O60565 25-184)
# T1 construct: also called biotin-hGREM1-His; recombinant human GREM1 protein
# T1 sequence: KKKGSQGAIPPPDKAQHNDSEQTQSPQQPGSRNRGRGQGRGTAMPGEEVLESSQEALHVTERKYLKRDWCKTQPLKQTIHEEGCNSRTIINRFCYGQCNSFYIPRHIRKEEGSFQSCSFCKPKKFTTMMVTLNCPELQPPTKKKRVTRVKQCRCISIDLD
# Experiment: competition ELISA, 100 pM biotin-hGREM1-His on plate-coated hBMP4
# Method: Data were analyzed using a sigmoidal dose-response model within Prism™ software. […] The absorbance values of the wells containing the highest concentration for each antibody were used to determine the percent maximum blocking.
binder,measurement,value
B1,IC50,7.2 pM
